To fix the notation:
B1: SNT-1 PTB domain (amino acid residues 11-140 of SEQ ID NO:1) (other)
chain: DTVPDNHRNKFKVINVDDDGNELGSGIMELTDTELILYTRKRDSVKWHYLCLRRYGYDSNLFSFESGRRCQTGQGIFAFKCARAEELFNMLQEIMQNNSINVVEEPVVERNNHQTELEVPRTPRTPTTPGLVPR

Assay [1] has as its target T1, hFGFR1 peptide, 22-residue peptide derived from the juxtamembrane region of hFGFR1 (residues 409-430 of SEQ … (named hFGFR1 (human); SEQ ID NO:2 is …).
T1 peptide: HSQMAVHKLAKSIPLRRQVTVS
The experiment in a line: isothermal titration calorimetry (ITC). (In general: In ITC the heat of successive injections is recorded.)

The target in assay [2] is B1. As to the kind of experiment: method not stated.

Square brackets hold non-standard residues; d marks the D form. Ends that are not written are not given here. pY = N[C@@H](Cc1ccc(OP(=O)(O)O)cc1)C(=O)O

Two molecules from patent publication US20060019296A1, “Methods of indentifying modulators of the FGF receptor” (Mount Sinai School of Medicine, published 2006) can be followed below.

As usually defined, the Kd is the equilibrium constant for the complex coming apart. A higher Kd goes with lower affinity.

Turning to B1, the dissociation constant (Kd) in assay [1] was approximately 10 µM.

B2: tyrosine-phosphorylated peptide LVIAGNPApYRS (SEQ ID NO:4) (peptide)
peptide: LVIAGNPA[pY]RS
Regarding B2, in assay [2], the Kd is approximately 1000 nM and the “fold higher affinity than for the FGFR derived peptide of SEQ ID NO:3” value was approximately 10 fold.
